First the molecules themselves.
B1: F1 (VHH)
VHH: QVQLQESGGGLVQAGGSLRLSCTASRTTSSINIMAWYRQAPGKRRELVALSIRGGNTHYADSVKGRFTISGVHANNTVYLQMNSLKPEDTAVYYCNTGGYWGQGTQVTVSS
B2: H1 (VHH)
VHH: QVQLQESGGGLVQAGGSLRLSCAASGRTFSSRGMGWFRQAPGKEREFVAAISWGGGTTYYADSVKGRFTISRDNAKNTVYLQMNSLKPEDTAVYYCAAHTGFPHEYDYWGQGTQVTVSS
B3: Nb L1 (HA-tagged, in periplasmic extract) (VHH)
VHH: VQAGGSLRLSCAASGYRYCRYDMSWYRQAPGKEREFVSAIDSYGSPTYADTVLGRFTISRDNAKNTVYLQMNSLKAEDTAMYYCKIDSTGWSSRCGKTYWGQGTQVTVSS
notes: source: E. coli WK6 (pHEN4), crude periplasmic extract
B4: Nb C4 (HA-tagged, in periplasmic extract) (VHH)
VHH: QVQLQESGGGLVQPGGSLRLSCAASGSTVSSSMMAWWRQTPGNQRELVALVASGNNTNYVDSVKGRFTVSRDNAKNTMYLQMNGLKPEDTAVYYCRLSVNGIWYWGQGTQVTVSS
notes: as for B3
B5: Nb M1 (HA-tagged, in periplasmic extract) (VHH)
VHH: VQAGDSLRLACTLFKYPTNNLCLAWFRQAPGKEREGVAALNTDGVGTYYAKSVEGRFTISQDKSKNEGYLQMDNLKPEDTAIYYCAADPTSRCNNYVQGRWWHEIGSRVWDWGQGTQVTVSS
notes: as for B3
B6: Nb G1 (HA-tagged, in periplasmic extract) (VHH)
VHH: QVQLQESGGGLVQPGGSLRLSCAASGSISSFNFMGWYRQAPGKQRELVALSTNSGVTNVAGSVKGRFTISRDNAKTTVYLQMNSLKPEDTAVYYCRVGAMGNLYWGQGTQVTVSS
notes: as for B3
B7: Nb G4 (HA-tagged, in periplasmic extract) (VHH)
VHH: B6 VHH with P14A
notes: as for B3
B8: Nb G3 (HA-tagged, in periplasmic extract) (VHH)
VHH: B6 VHH with P14T
notes: as for B3
B9: Nb G2 (HA-tagged, in periplasmic extract) (VHH)
VHH: B6 VHH with A23V
notes: as for B3
B10: Nb I1 (HA-tagged, in periplasmic extract) (VHH)
VHH: QVQLQESGGGLVQAGGSLRLSCAASGRTFRRYDMGWFRQAPGKEREFVAASTWSADDTYYAGSVKGRFTISRDNAKNTVYLQMNSLKPEDTAVYYCAAGETRKYGFRTTEGYYDSWGQGTQVTVSS
notes: as for B3
B11: Nb C1 (HA-tagged, in periplasmic extract) (VHH)
VHH: QVQLQESGGGLVQTGGSLRLSCAASGSTVSSSMMAWWRQTPGNQRELVALVARGNNTNYVDSVKGRFTVSRDNAKNTMYLQMNSLKPEDTAVYYCRILSVNGIWYWGQGTQVTVSS
notes: as for B3
B12: Nb C3 (HA-tagged, in periplasmic extract) (VHH)
VHH: B11 VHH with R53S
notes: as for B3
B13: Nb G5 (HA-tagged, in periplasmic extract) (VHH)
VHH: QVQLQESGGGLVQPGGSLRLSCAASGSFFRTYIVSWYRQAPGKRREAVAVMSNSGNTNYADSVKGRFTISRDNAVNTVYLQMNSLKPEDTAVYYCNLLKVTVPPANYWGQGTQVTVSS
notes: as for B3
B14: Nb G6 (HA-tagged, in periplasmic extract) (VHH)
VHH: B13 VHH with G16E, A23V
notes: as for B3
B15: Nb G7 (HA-tagged, in periplasmic extract) (VHH)
VHH: B13 VHH with P14S
notes: as for B3
B16: Nb E2 (HA-tagged, in periplasmic extract) (VHH)
VHH: QVQLQESGGGLVQAGGSLRLSCATSGSIFSIISMGWYRQAPGKQRELVALVFRGGSTVYADSVKGRFTISGDIAKNTVYLQMDSLKPEDTAVYYCNVKSIGTAQYWGQGTQITVSS
notes: as for B3
B17: Nb E5 (HA-tagged, in periplasmic extract) (VHH)
VHH: B16 VHH with A14P, N76S, V97A, S99P, I112V
notes: as for B3
B18: Nb E6 (HA-tagged, in periplasmic extract) (VHH)
VHH: B16 VHH with N76S, V97A, S99P, I112V
notes: as for B3
B19: Nb C7 (VHH)
VHH: QVQLQESGGGSVQAGESLTLSCTASGSSLSHKSVGWWRQTPGNQRELVALVASGNNTNYVDSVKGRFTVSRDNAKNTMYLQMNSLKPEDTAVYYCRILSVNGIWYWGQGTQVTVSS
notes: Nanobody from a dromedary immunised with RAW264.7 cells; recloned into pHEN6 for the C-terminal His6 tag; also called anti-PD-L1 Nb C7; source: E. coli fermentation cultures, purified; not shown: His6, C-terminal, kept
B20: Nb C3 (VHH)
VHH: B11 VHH with R53S
notes: Nanobody from a dromedary immunised with RAW264.7 cells; recloned into pHEN6 for the C-terminal His6 tag; also called anti-PD-L1 Nb C3; source: E. coli fermentation cultures, purified; not shown: His6, C-terminal, kept
B21: Nb E4 (VHH)
VHH: B16 VHH with Q13H, A14P, N76S, V97A, S99P, I112V
notes: Nanobody from a dromedary immunised with RAW264.7 cells; recloned into pHEN6 for the C-terminal His6 tag; also called anti-PD-L1 Nb E4; source: E. coli fermentation cultures, purified; not shown: His6, C-terminal, kept
B22: Nb E2 (VHH)
VHH: B16 VHH
notes: Nanobody from a dromedary immunised with RAW264.7 cells; recloned into pHEN6 for the C-terminal His6 tag; also called anti-PD-L1 Nb E2; source: E. coli fermentation cultures, purified; not shown: His6, C-terminal, kept
B23: Nb C7 (purified, C-terminal His6 tag) (VHH)
VHH: B19 VHH
notes: source: E. coli (pHEN6), purified; not shown: His6, C-terminal, kept
B24: Nb C3 (purified, C-terminal His6 tag) (VHH)
VHH: B11 VHH with R53S
notes: as for B23
B25: Nb E4 (purified, C-terminal His6 tag) (VHH)
VHH: B16 VHH with Q13H, A14P, N76S, V97A, S99P, I112V
notes: as for B23
B26: Nb E2 (purified, C-terminal His6 tag) (VHH)
VHH: B16 VHH
notes: as for B23

Changes are numbered by the printed parent chain.

One may read the Kd as a measure of binding affinity in units of concentration.

T2 sequence (Q9NZQ7 19-238): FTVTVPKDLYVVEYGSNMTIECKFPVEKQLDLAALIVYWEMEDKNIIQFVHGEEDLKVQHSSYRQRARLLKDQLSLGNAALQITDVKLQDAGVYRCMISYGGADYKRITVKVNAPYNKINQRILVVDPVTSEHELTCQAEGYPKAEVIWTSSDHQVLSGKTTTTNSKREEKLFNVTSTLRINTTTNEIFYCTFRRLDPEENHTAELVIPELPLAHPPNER
T1 sequence (Q9EP73 19-239): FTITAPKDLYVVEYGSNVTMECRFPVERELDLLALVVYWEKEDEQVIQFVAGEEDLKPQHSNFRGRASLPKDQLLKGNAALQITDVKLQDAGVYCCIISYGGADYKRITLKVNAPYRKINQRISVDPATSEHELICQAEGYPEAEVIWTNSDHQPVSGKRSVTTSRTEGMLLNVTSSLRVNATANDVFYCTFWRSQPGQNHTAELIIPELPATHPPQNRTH

One assay concerns the target T1, His-tagged recombinant mouse PD-L1 protein (Mus musculus, UniProt Q9EP73).
Experiment: not given
Details: not given
As for B1, the binding result was “binds”.

For B2, the binding result was “binds”.

Another assay addresses T2, Human PD-L1 Fc-fusion protein (R&D Systems, 156-B7) (Homo sapiens, UniProt Q9NZQ7).
T2 construct: programmed death-ligand 1 (PD-L1, B7-H1, CD274), human; also called huPD-L1; B7-H1; source: bought: R&D Systems (156-B7)
Kind of assay: SPR; Biacore T200, 25°C, HBS (0.01 M HEPES pH 7.4, 0.15 M NaCl, 3 mM EDTA, 0.005% Tween 20); mouse or human PD-L1 Fc-fusion protein amine-coupled on a CM5 chip (650-900 RU); Nb in crude periplasmic extract as analyte, its concentration estimated by CFCA; 9 dilutions, 120 s association, 160 s dissociation; 1-to-1 fit; affinity estimations. As to conditions: one partner purified.
As to B3, the Kd is 34 nM.

Turning to B4, the equilibrium dissociation constant (Kd) is 342 nM.

Turning to B5, the Kd is 17 nM.

On to B6, for which the Kd is 50 nM.

Take B7: the equilibrium dissociation constant (Kd) was 74 nM.

For the molecule B8, the Kd is 907 nM.

As to B9, the equilibrium dissociation constant (Kd) was 158 nM.

As for B10, the Kd was 322 nM.

As to B11, the Kd was 143 nM.

With B12, the Kd was 32 nM.

In the case of B13, the dissociation constant (Kd) is 16 nM.

B14: the Kd is 21 nM.

In the case of B15, the dissociation constant (Kd) is 129 nM.

B16: the dissociation constant Kd was 94 nM.

On to B17, for which the Kd was 54 nM.

On to B18, for which the Kd was 217 nM.

The target of the next assay is T3, Mouse PD-L1 Fc-fusion protein (R&D Systems, 1019-B7) (Mus musculus, UniProt Q9EP73).
T3 construct: programmed death-ligand 1 (PD-L1, B7-H1, CD274), mouse; also called moPD-L1; B7-H1; source: bought: R&D Systems (1019-B7)
T3 sequence (Q9EP73 19-239): as above
Described as above. As to conditions: one partner purified.
In the case of B3, the equilibrium dissociation constant (Kd) was 15 nM.

For B4, the Kd is 0.187 nM.

For B5, the Kd was 13 nM.

On to B6, for which the equilibrium dissociation constant (Kd) is 4.4 nM.

On to B7, for which the dissociation constant (Kd) was 6.2 nM.

On to B8, for which the dissociation constant (Kd) was 5 nM.

As to B9, the Kd was 5.5 nM.

Consider B10, for which the Kd is 67 nM.

In the case of B11, the Kd was 0.327 nM.

For B12, the Kd is 0.14 nM.

For B13, the equilibrium dissociation constant (Kd) is 3.9 nM.

With B14, the Kd is 5 nM.

Take B15: the Kd is 3.4 nM.

On to B16, for which the dissociation constant (Kd) was 5.6 nM.

For the molecule B17, the Kd was 14 nM.

Consider B18, for which the Kd was 6.9 nM.

The target in a further assay is T1, His-tagged recombinant mouse PD-L1 …. Nature of the assay: SPR; His-tagged mouse or human PD-L1 immobilised on a CM5 chip (EDC/NHS, between 650 and 900 RU); purified Nbs, 9 dilutions, 120 sec binding, 160 sec dissociation; Biacore T200, 25°C, HBS (0.01 M HEPES pH 7.4, 0.15 M NaCl, 3 mM EDTA, 0.005% Tween 20); 1-to-1 fit; n = 1. As to conditions: both partners purified. For orientation: Surface plasmon resonance follows binding to a sensor surface in real time, without labels.
As to B19, the Kd was determined as 17 nM.

As to B20, the Kd came out at 0.5 nM.

For the molecule B21, the dissociation constant Kd was 4 nM.

Regarding B22, the dissociation constant Kd came to 2.1 nM.

For the next assay, the target named is T4, His-tagged recombinant human PD-L1 protein (Sino Biological #10084-H08H) (Homo sapiens, UniProt Q9NZQ7).
T4 construct: programmed death-ligand 1 (PD-L1, B7-H1, CD274), human; also called huPD-L1; source: bought: Sino Biological (#10084-H08H)
T4 sequence (Q9NZQ7 19-238): as the sequence (Q9NZQ7 19-238) above
Kind of assay: SPR; Biacore T200, 25°C, HBS (0.01 M HEPES pH 7.4, 0.15 M NaCl, 3 mM EDTA, 0.005% Tween 20); His-tagged recombinant human PD-L1 amine-coupled on a CM5 chip (650-900 RU); purified Nb as analyte, 9 dilutions (0.15-1000 nM), 120 s association, 160 s dissociation; 1-to-1 fit; n = 1. As to conditions: both partners purified.
Take B23: the dissociation constant (Kd) came out at 74.5 nM.

Regarding B24, the equilibrium dissociation constant (Kd) is 170 nM.

As for B25, the Kd was 46.1 nM.

Take B26: the equilibrium dissociation constant (Kd) is 55.1 nM.

(Values after paper PMC5522039, “Non-invasive assessment of murine PD-L1 levels in syngeneic tumor models by nuclear imaging with nanobody tracers” (Oncotarget, 2017).)
